Assay [1] addresses T1, Rabbit skeletal muscle actin (filaments) (rabbit, UniProt P68135 1-377). Put plainly: cell-based or functional assay.
Assay [2] has as its target T1, Rabbit skeletal muscle actin (filaments). Put plainly: co-sedimentation; high-speed co-sedimentation; Drp1 1.3 uM with pre-polymerized actin filaments 0.25-10 uM, 1 hr at 23 C, 200 ul, ionic strength 75 mM (NaCl); 80,000 rpm 20 min 4 C (TLA-100.1); pellets on SDS-PAGE, Colloidal blue, ImageJ; apparent Kd. The conditions noted are these: both partners purified.

B1: Human Drp1 isoform 000 (E. coli-purified) (enzyme)
chain: MEALIPVINKLQDVFNTVGADIIQLPQIVVVGTQSSGKSSVLESLVGRDLLPRGTGIVTRRPLILQLVHVSQEDKRKTTGEENGVEAEEWGKFLHTKNKLYTDFDEIRQEIENETERISGNNKGVSPEPIHLKIFSPNVVNLTLVDLPGMTKVPVGDQPKDIELQIRELILRFISNPNSIILAVTAANTDMATSEALKISREVDPDGRRTLAVITKLDLMDAGTDAMDVLMGRVIPVKLGIIGVVNRSQLDINNKKSVTDSIRDEYAFLQKKYPSLANRNGTKYLARTLNRLLMHHIRDCLPELKTRINVLAAQYQSLLNSYGEPVDDKSATLLQLITKFATEYCNTIEGTAKYIETSELCGGARICYIFHETFGRTLESVDPLGGLNTIDILTAIRNATGPRPALFVPEVSFELLVKRQIKRLEEPSLRCVELVHEEMQRIIQHCSNYSTQELLRFPKLHDAIVEVVTCLLRKRLPVTNEMVHNLVAIELAYINTKHPDFADACGLMNNNIEEQRRNRLARELPSAVSRDKVASGGGGVGDGVQEPTTGNWRGMLKTSKAEELLAEEKSKPIPIMPASPQKGHAVNLLDVPVPVARKLSAREQRDCEVIERLIKSYFLIVRKNIQDSVPKAVMHFLVNHVKDTLQSELVGQLYKSSLLDDLLTESEDMAQRRKEAADMLKALQGASQIIAEIRETHLW
notes: Drp1 (dynamin-related protein 1), human, isoform 000 of Strack et al. 2013; Cloned in pET16b with an N-terminal Strep-tag followed by an HRV3C protease site; eluted from the resin by HRV3C cleavage; Used in high-speed co-sedimentation and GTPase assays; also called dynamin GTPase Drp1; not shown: Strep-tag, N-terminal, cleaved
Take B1: the “Drp1 GTPase activity (malachite green phosphate release) with 0.5 or 1 uM pre-polymerized actin filaments, against Drp1 alone” value in assay [1] was roughly 3.5 fold. Also, the Kd in assay [2] was found to be 800 ± 400 nM.

The record behind these values is PMC4755738, “Actin filaments target the oligomeric maturation of the dynamin GTPase Drp1 to mitochondrial fission sites” (eLife, 2015).
